Experimental data published in patent US20030175730, “Multivalent RNA aptamers and their expression in multicellular organisms” (published 2003).

Assays:
B52 (SRp55) full length [1] = biological target: T1, B52 (SRp55) full length (Drosophila melanogaster, UniProt P26686 P26686:1-350); assay: EMSA; binding not compromised; settings: tags: baculovirus/Sf9 expressed, SR protein purification; label: 32P-UTP; hairpin
Experimental: (§1) All binding assays were performed in 20 μl volume in 1× binding buffer described above. A typical binding assay using labeled RNA contains about 20 finole of ³²P-labeled RNA probe and differing amounts (1-10 pmole) of B52 protein. A typical binding assay using the truncated versions of B52 contains 1 μl of the ³⁵S-labeled translation reaction mixture with 2 pmoles of unlabeled RNA transcript (the final concentration of RNAs in this reaction was 100 nM and concentration of the labeled B52 proteins was much lower). The reactions were allowed to equilibrate for 15-20 minutes at ambient temperature before being subjected to filter binding, gel shift, or UV crosslinking.
(§2) To determine the sequence/structure requirements for binding by B52, deletion and substitution mutations, and antisense constructs of BBS were designed in light of the shared sequence motif and predicted secondary structures (FIG. 4). These short RNA transcripts were produced by in vitro transcription of synthetic templates, and their affinity to B52 was assayed by band shift.

B52 (SRp55) full length [2] = biological target: T1, B52 (SRp55) full length; assay: EMSA; pentavalent vs monovalent; single-unit ribozyme-cleaved transcript tested in FIG. 9A; settings: tags: baculovirus/Sf9 expressed, SR protein purification; multivalent, five BBS hairpins closed by S35 stem
Experimental: (§3) Gel shifts were performed at 4° C. The binding reaction mixtures were set at 4° C. for 5-10 minutes before being loaded onto a 2.5% agarose gel in ¼ TBE buffer. The avidity of the pentavalent RNA aptamer to B52 was examined on longer agarose gels (25 cm) to improve the resolution of RNA bands. The affinity of the RNA for the in vitro translated polypeptides was estimated by comparing the intensity of the bands representing the complex on the agarose gel and that of the corresponding polypeptides run on SDS-PAGE. To crosslink proteins to RNA, the binding reaction mixtures were irradiated for 20 minutes from 5 cm directly above by inverting a short-wavelength UV trans-illuminator. The products of crosslinking were analyzed using standard SDS-PAGE.
Fragment C, which contains no binding site, served as an internal loading control in a band shift assay to assess the avidity of the pentavalent construct. During the transcription reaction, the extent of self-cleavage reached about 90% (FIG. 9A, Lane 1). […] The multivalent RNA aptamers bound B52 10-fold more avidly than the individual monovalent RNA aptamers, as shown here compared to the strong-binding primary aptamer BBS #14 (Lanes 2-4 vs. Lanes 6-8, FIG. 9A). […]

B52 (SRp55) full length [3] = biological target: T1, B52 (SRp55) full length; assay: EMSA; strong binder; both conserved flanking Gs; settings: tags: baculovirus/Sf9 expressed, SR protein purification; label: 32P-UTP; hairpin
Experimental: as §1, §2

B52 (SRp55) full length [4] = biological target: T1, B52 (SRp55) full length; assay: EMSA; binds as well as BBS-I; settings: tags: baculovirus/Sf9 expressed, SR protein purification; label: 32P-UTP; hairpin with internal loop
Experimental: as §1, §2

B52 (SRp55) full length [5] = biological target: T1, B52 (SRp55) full length; assay: EMSA; consensus trapped in duplex loses binding; settings: tags: baculovirus/Sf9 expressed, SR protein purification; label: 32P-UTP; hairpin, BBS consensus paired with its antisense via UUCG tetraloop
Experimental: as §1, §2

B52 (SRp55) full length [6] = biological target: T1, B52 (SRp55) full length; assay: EMSA; 1:1; 50 mM Tris pH 7.6, 200 mM KOAc, 5 mM MgCl2, excess tRNA, gel 4 C; settings: tags: baculovirus/Sf9 expressed, SR protein purification; label: 32P-UTP; hairpin
Experimental: as §1
(§4) When individual RNA's transcribed from cloned sequences were tested by filter binding assay the BBS RNA's were all able to bind B52 to generate signals that were 20 times the background produced by RNA's from the unselected pools. […] After cloning the selected sequences, RNA transcripts without most of the 3′ constant region were made by cutting the template with the restriction endonuclease Scal. […] The band shift assay was first performed with these sequences. Two sequences randomly picked from the original unselected pool were used as controls. Increasing amounts of B52 were added to ³²P-labeled RNA probes, which contain the 5′ constant region, in the presence of a large excess of tRNA. […]

B52 (SRp55) full length [7] = biological target: T1, B52 (SRp55) full length; assay: EMSA; antisense does not bind; settings: tags: baculovirus/Sf9 expressed, SR protein purification, label: 32P-UTP
Experimental: as §1, §2

B52 (SRp55) full length [8] = biological target: T1, B52 (SRp55) full length; assay: EMSA; full binding activity; settings: tags: baculovirus/Sf9 expressed, SR protein purification; label: 32P-UTP; hairpin with unfolded 3' tail
Experimental: as §1, §2

B52 (SRp55) full length [9] = biological target: T1, B52 (SRp55) full length; assay: filter; signal 20x background of unselected pool; settings: tags: baculovirus/Sf9 expressed, SR protein purification; hairpin
Experimental: as §1, §4

B52 (SRp55) full length [10] = biological target: T1, B52 (SRp55) full length; assay: EMSA; fully active; settings: tags: baculovirus/Sf9 expressed, SR protein purification; label: 32P-UTP; hairpin
Experimental: as §1, §2

B52 RRM1+RRM2 (R12) = B52 RRM1+RRM2 (R12) (Drosophila melanogaster, UniProt P26686 P26686:4-188); assay: EMSA; affinity comparable to baculovirus B52; also UV-crosslinked; settings: tags: 35S-Met, reticulocyte lysate; hairpin
Chain of B52 RRM1+RRM2 (R12) (P26686 other isoform, or with tags, fused parts or gaps): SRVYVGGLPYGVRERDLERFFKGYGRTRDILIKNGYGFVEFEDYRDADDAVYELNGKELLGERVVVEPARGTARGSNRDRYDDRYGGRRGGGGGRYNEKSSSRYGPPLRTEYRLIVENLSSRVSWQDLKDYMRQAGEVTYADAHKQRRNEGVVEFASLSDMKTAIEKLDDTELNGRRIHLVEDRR
Experimental: as §3
(§5) BBS RNAs were selected for their ability to bind full length B52 protein. It is possible that B52 binds RNA through either one or the other RRMs, the SR domain, or a combination of these domains. To identify the specific RNA-binding site on B52, a set of ³⁵S-methionine labeled B52 deletion constructs were prepared by in vitro translation and then tested for their ability to bind the selected BBS #8 RNA in two different assays (FIG. 6A). […]
(§6) To confirm the requirements of both RRMs for binding, these binding reactions were repeated and the reaction mixtures were subjected to UV irradiation. The UV-crosslinked species were then analyzed on SDS-PAGE. […]

B52 RRM1 (R1) = B52 RRM1 (R1) (Drosophila melanogaster, UniProt P26686 P26686:4-74); assay: EMSA; no band; not UV-crosslinked; not complemented by R2S in trans; settings: tags: 35S-Met, reticulocyte lysate; hairpin
Chain of B52 RRM1 (R1) (P26686 4-74, one chain of several): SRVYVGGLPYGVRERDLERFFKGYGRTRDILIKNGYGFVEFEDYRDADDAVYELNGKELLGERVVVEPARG
Experimental: as §3, §5, §6

B52 SR domain (S) = B52 SR domain (S) (Drosophila melanogaster, UniProt P26686 P26686:189-350); assay: EMSA; 100 nM RNA, no discrete band; settings: tags: 35S-Met, reticulocyte lysate; hairpin
Chain of B52 SR domain (S) (P26686 other isoform, or with tags, fused parts or gaps): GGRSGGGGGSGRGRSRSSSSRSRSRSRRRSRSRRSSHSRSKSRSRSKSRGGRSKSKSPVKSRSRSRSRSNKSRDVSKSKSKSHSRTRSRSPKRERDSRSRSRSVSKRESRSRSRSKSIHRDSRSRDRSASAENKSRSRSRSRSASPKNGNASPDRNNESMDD
Experimental: as §3
(§7) BBS RNAs were selected for their ability to bind full length B52 protein. It is possible that B52 binds RNA through either one or the other RRMs, the SR domain, or a combination of these domains. To identify the specific RNA-binding site on B52, a set of ³⁵S-methionine labeled B52 deletion constructs were prepared by in vitro translation and then tested for their ability to bind the selected BBS #8 RNA in two different assays (FIG. 6A). These polypeptides also serve as a second source of target proteins in binding assays to confirm the specificity of binding to the selected BBS RNA.

B52 RRM2+SR domain (R2S) = B52 RRM2+SR domain (R2S) (Drosophila melanogaster, UniProt P26686 P26686:115-350); assay: EMSA; 100 nM RNA, no discrete band; settings: tags: 35S-Met, reticulocyte lysate; hairpin
Chain of B52 RRM2+SR domain (R2S) (P26686 other isoform, or with tags, fused parts or gaps): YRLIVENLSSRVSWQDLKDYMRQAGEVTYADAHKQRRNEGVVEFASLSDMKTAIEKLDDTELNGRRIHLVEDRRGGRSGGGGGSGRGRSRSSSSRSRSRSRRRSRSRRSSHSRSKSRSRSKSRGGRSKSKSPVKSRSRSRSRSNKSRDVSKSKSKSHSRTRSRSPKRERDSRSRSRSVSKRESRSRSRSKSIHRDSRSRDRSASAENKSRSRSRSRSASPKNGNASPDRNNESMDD
Experimental: as §3, §7

B52 full length (F) = B52 full length (F) (Drosophila melanogaster, UniProt P26686 P26686:1-350); assay: EMSA; 100 nM RNA; affinity comparable to baculovirus B52; settings: tags: 35S-Met, reticulocyte lysate; hairpin
Chain of B52 full length (F) (P26686 other isoform, or with tags, fused parts or gaps): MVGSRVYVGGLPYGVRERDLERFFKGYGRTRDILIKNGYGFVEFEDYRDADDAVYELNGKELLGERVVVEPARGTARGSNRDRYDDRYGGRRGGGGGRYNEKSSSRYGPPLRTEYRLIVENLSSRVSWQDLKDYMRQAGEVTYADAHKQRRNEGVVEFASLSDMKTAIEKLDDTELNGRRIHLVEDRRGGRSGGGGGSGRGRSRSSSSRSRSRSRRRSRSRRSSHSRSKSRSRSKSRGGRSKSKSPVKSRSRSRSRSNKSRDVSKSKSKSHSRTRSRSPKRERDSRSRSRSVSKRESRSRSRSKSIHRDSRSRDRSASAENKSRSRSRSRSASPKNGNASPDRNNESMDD
Experimental: as §1, §7

RBP1 (SR protein) = biological target: T2, RBP1 (SR protein) (UniProt Q02427 Q02427:1-144); assay: no measurable affinity for BBS RNAs; individual BBS and method not specified; settings: hairpin
T2 sequence: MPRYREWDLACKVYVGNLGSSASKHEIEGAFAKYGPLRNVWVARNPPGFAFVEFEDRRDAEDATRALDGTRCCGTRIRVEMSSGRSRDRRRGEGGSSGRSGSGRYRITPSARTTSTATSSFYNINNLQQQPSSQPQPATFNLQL

HSF (heat shock factor) = biological target: T3, HSF (heat shock factor) (UniProt P22813 P22813:1-691); assay: as above; settings: hairpin
T3 sequence: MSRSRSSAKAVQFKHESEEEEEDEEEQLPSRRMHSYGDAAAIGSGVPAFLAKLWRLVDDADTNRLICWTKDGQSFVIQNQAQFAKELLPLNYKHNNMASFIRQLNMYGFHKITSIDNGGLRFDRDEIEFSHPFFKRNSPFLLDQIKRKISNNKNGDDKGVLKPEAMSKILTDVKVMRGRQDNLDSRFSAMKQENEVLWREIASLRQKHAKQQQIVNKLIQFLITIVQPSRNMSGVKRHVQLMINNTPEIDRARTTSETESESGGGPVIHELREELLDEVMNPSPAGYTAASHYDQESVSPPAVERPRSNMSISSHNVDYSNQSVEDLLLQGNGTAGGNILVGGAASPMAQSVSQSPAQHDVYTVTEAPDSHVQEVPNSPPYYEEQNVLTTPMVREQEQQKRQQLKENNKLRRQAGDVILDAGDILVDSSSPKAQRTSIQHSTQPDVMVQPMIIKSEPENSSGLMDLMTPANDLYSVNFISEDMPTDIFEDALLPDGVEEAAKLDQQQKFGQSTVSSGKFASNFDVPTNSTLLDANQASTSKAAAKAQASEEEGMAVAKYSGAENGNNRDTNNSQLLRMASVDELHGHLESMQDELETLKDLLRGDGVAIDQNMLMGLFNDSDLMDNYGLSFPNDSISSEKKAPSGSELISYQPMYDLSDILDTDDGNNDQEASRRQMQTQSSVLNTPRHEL

GGCGGUCAACCAGGCGACCGCC (ssRNA) [BBS-I/NoBulge]: binds (B52 (SRp55) full length [1]).

B1: mature pentavalent BBS(5) aptamer (ssRNA)
RNA: GCGGCCGCCUCCGCGGCCGCCUGAUGAGUCCGUGAGGACGAAACAUGCAUGUCGAGAGUACGAUCAACCAGGCGACAGUACUCUCGACGAUCAACCAGGCGACAGUGGCUGGUCAACCAGGCGACCGCCACUGCAGGGUAACGGUCAACCAGGCGACCGUUACCCGGACGGUCAACCAGGCGACCGUUGACUUCGGUCAGUCGAGAUGCAUGUC
For B1, the binding signal (B52 (SRp55) full length [2]) was 10 fold more avid than BBS #14.

GGACGGUCAACCAGGCGACCGU (ssRNA) [bbs-II/3'Stem]: binds (B52 (SRp55) full length [3]).

GGGUACGAUCAACCAGGCGACAGUACCC (ssRNA) [BBS-II]: binds (B52 (SRp55) full length [4]).

GGUCGCCUGGUUGAUCUUCGGAUCAACCAGGCGACA (ssRNA) [UUCG/BBS]: no binding (B52 (SRp55) full length [5]).

B2: BBS #8 ScaI-trimmed (ssRNA)
RNA: GGGAGAAUUCAACUGCCAUCUAGGCUGGUCAACCAGGCGACCGCCACCCGCGCGCGCAAUACCUAGU
B2 was tested, and the Kd (B52 (SRp55) full length [6]) was roughly 20 nM.

GGCGGUCGCCUGGUUGACCAGCC (ssRNA) [AntiBBS-I]: no binding (B52 (SRp55) full length [7]; hairpin).

B3: BBS #14 ScaI-trimmed (ssRNA)
RNA: GGGAGAAUUCAACUGCCAUCUAGGCAGGGUAACGAUCAACCUGGCGACAGCUGCCCUGCCGUCCAAGU
In the case of B3, the Kd (B52 (SRp55) full length [6]) is reported as roughly 50 nM.

GGACUGUCGCCUGGUUGAUCGU (ssRNA) [AntiBBS-II]: no binding (B52 (SRp55) full length [7]).

GGCUGGUCAACCAGGCGACCGCCACCCGCGCGC (ssRNA) [BBS-I/Long] was tested, and the binding signal (B52 (SRp55) full length [8]) was 1 fold of BBS #8.

B4: BBS #23 (ssRNA)
RNA: GGGAGAAUUCAACUGCCAUCUAGGCCCAACUGCUAAGAAGCAUCCUGUACGAUCAACCCGGCGACAGUACUACAAGCUUCUGGACUCGGU
B4: binds (B52 (SRp55) full length [9]).

GGCUGGUCAACCAGGCGACCGCC (ssRNA) [BBS-I] was tested, and the binding signal (B52 (SRp55) full length [10]) was 1 fold of BBS #8.

B5: BBS #8 (ssRNA)
RNA: GGGAGAAUUCAACUGCCAUCUAGGCUGGUCAACCAGGCGACCGCCACCCGCGCGCGCAAUACCUAGUACUACAAGCUUCUGGACUCGGU
B5: binds (B52 RRM1+RRM2 (R12)); no binding (B52 RRM1 (R1)); no binding (B52 SR domain (S)). B5: no binding (B52 RRM2+SR domain (R2S)); binds (B52 full length (F)); no binding (RBP1 (SR protein)). B5: no binding (HSF (heat shock factor)).
